Data: patent publication US5723436, “Calcineurin interacting protein compositions and methods” (The Board of Trustees of the Leland Stanford Junior …, dated 1998)

B1: GBT-A1 (G4BD-CNA1) (other)
chain: MKLLSSIEQACDICRLKKLKCSKEKPKCAKCLKNNWECRYSPKTKRSPLTRAHLTEVESRLERLEQLFLLIFPREDLDMILKMDSLQDIKALLTGLFVQDNVNKDAVTDRLASVETDMPLTLRQHRISATSSSEESSNKGQRQLTVSMSKDLNSSRIKIIKPNDSYIKVDRKKDLTKYELENGKVISTKDRSYASVPAITGKIPSDEEVFDSKTGLPNHSFLREHFFHEGRLSKEQAIKILNMSTVALSKEPNLLKLKAPITICGDIHGQYYDLLKLFEVGGDPAEIDYLFLGDYVDRGAFSFECLIYLYSLKLNNLGRFWMLRGNHECKHLTSYFTFKNEMLHKYDMEVYDACCRSFNVLPLAALMNGQYFCVHGGISPELKSVEDVNKINRFREIPSRGLMCDLLWADPVENYDDARDGSEFDQSEDEFVPNSLRGCSFAFTFKASCKFLKANGLLSIIRAHEAQDAGYRMYKNNKVTGFPSLITMFSAPNYLDTYHNKAAVLKYEENVMNIRQFHMSPHPYWLPDFMDVFTWSLPFVGEKVTSMLVSILNICSEQELDPESEPKAAEETVKARANATKETGTPSDEKASSAILEDETRRKALRNKILAIAKVSRMFSVLREESEKVEYLKTMNAGVLPRGALARGTEGLNETLSTFEKARKEDLINEKLPPSLSEVEQEKIKYYEKILKGAEKKPQL
B2: GBT-A2 (G4BD-CNA2) (other)
chain: MKLLSSIEQACDICRLKKLKCSKEKPKCAKCLKNNWECRYSPKTKRSPLTRAHLTEVESRLERLEQLFLLIFPREDLDMILKMDSLQDIKALLTGLFVQDNVNKDAVTDRLASVETDMPLTLRQHRISATSSSEESSNKGQRQLTVSMSSDAIRNTEQINAAIKIIENKTERPQSSTTPIDSKASTVAAANSTATETSRDLTQYTLDDGRVVSTNRRIMNKVPAITSHVPTDEELFQPNGIPRHEFLRDHFKREGKLSAAQAARIVTLATELFSKEPNLISVPAPITVCGDIHGQYFDLLKLFEVGGDPATTSYLFLGDYVDRGSFSFECLIYLYSLKLNFNDHFWLLRGNHECKHLTSYFTFKNEMLHKYNLDIYEKCCESFNNLPLAALMNGQYLCVHGGISPELNSLQDINNLNRFREIPSHGLMCDLLWADPIEEYDEVLDKDLTEEDIVNSKTMVPHHGKMAPSRDMFVPNSVRGCSYAFTYRAACHFLQETGLLSIIRAHEAQDAGYRMYKNTKTLGFPSLLTLFSAPNYLDTYNNKAAILKYENNVMNIRQFNMTPHPYWLPDFMDVFTWSLPFVGEKVTEMLVAILNICTEDELENDTPVIEELVGTDKKLPQAGKSEATPQPATSASPKHASILDDEHRRKALRNKILAVAKVSRMYSVLREETNKVQFLKDHNSGVLPRGALSNGVKGLDEALSTFERARKHDLINEKLPPSLDELKNENKKYYEKVWQKVHEHDAKNDSK

Biological target: GAD (GAL4 activation domain alone, from pGAD) (yeast, UniProt P04386)
Test: yeast GAL4 two-hybrid, fusion tested against the complementary GAL4 domain not fused to a second protein

Binder	binding result
B1	no binding
B2	no binding
